Blank lines part the entries; values can stand above or below the substance they belong to.
How the values were obtained:
[1] = molecular target: Spt16 (human (endogenous in HeLa and U2OS)) (UniProt Q9Y5B9)
Spt16 956–960A (human) = Spt16 956–960A (human) (UniProt Q9Y5B9); assay: pull-down; GST-tagged Spt16 fragments and alanine mutants as bait, CENP-T^HFD/-W as prey, GST alone as control; Coomassie gel; also with 1 M NaCl for 926–1047 (Supplemental Fig. S5a)
Spt16 952–955A (human) = Spt16 952–955A (human) (UniProt Q9Y5B9); assay: as above
CENP-T^HFD/-W complex = CENP-T^HFD/-W complex (UniProt Q5EE01); assay: ITC; Spt16-CTD (amino acids 926–965; 2.2 mM) injected into 200 µL of 150 µM CENP-T/-W, human H2A/H2B or CENP S/X; 20°C; 20 mM Tris pH 7.5, 0.2 M NaCl; single-site model for CENP-T/-W, two-site model for H2A/H2B

Chain of CENP-T (Q96BT3 whole entry): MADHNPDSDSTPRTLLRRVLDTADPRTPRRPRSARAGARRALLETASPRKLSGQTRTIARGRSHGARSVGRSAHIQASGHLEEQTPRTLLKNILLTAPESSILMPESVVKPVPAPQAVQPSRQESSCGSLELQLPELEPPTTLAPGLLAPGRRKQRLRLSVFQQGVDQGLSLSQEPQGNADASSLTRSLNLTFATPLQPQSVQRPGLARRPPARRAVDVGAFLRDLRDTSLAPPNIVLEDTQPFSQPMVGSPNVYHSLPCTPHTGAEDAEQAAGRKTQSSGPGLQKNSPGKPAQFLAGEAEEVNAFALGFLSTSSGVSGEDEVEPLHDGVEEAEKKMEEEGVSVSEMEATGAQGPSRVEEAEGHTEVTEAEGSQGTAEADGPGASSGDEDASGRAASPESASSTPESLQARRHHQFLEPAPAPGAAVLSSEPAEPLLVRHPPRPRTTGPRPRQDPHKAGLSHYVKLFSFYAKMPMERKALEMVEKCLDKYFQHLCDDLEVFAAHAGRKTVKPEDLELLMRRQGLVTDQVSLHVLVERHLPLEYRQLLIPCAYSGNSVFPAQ

accumulation of endogenous CENP-T at the LacO locus in cells transfected with eGFP-LacI-Spt16 (immunofluorescence after 24 h) [1]: 10 % of cells
Substance: CENP-T (from UniProt Q96BT3 1-561) (natural protein)

percent reduction of binding against unmutated Spt16 926–965 (Spt16 956–960A (human)): < 60%
percent reduction of binding against unmutated Spt16 926–965 (Spt16 952–955A (human)): < 40%
Substance: CENP-T^HFD/-W complex (from UniProt Q5EE01 1-88)

Kd (CENP-T^HFD/-W complex): 6.3 µM
Substance: Spt16-CTD (Spt16 amino acids 926–965) (from UniProt Q9Y5B9 926-965) (domain or fragment)

— PMC4911930
